Sequences and labels used below:
B1: mouse secretagogin [mouse] / helix-b of the Habc domain of mouse syntaxin-4 [mouse] (parent complex)
chain 1: MDNARRKTPARLDAACFWQIWQRFDKEEKGYIRETELDAFFDHLLAKSGTEDTLMEENVQKVKEQLMTSHNVSKEGRILMKELASMFLSEDENFLLFFRLETPLDNSVEFMQIWRKYDADSSGFISAAELCNFLRDLFLHHKKNISEAELEEYTSTMMKIFDKNKDGRLDLNDLARILALQENFLLQFKMDASSTEERKRDFEKIFAHYDVSKTGALEGPEVDGFVKDMMELVQPSISGVDLDKFREILLRHCDVNKDGKIQKSELALCLGLKINP
chain 2: TPLPEESMKQGLQNLREEIKQLGREVRAQLKAIEPQKE

In general, Kd refers to the concentration at which binding is half-saturated.

In the assay the parent is B1. The assay is described as follows: ITC. In general terms: Isothermal titration calorimetry measures the heat released or taken up as one component is titrated into another.
Take chain 1 L270A: the dissociation constant (Kd) turned out to be 16.2 µM.
